Tested on: Escherichia coli TOP10
Assay: shrunken log2 fold change of peptide-encoding DNA abundance (4.5 h post-induction vs induction); higher = less antimicrobial activity (less host growth inhibition)
Details: time post-induction: 4.5 h; library: site-saturation at positions 5, 18, 19, 20
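Note: peptides expressed intracellularly from a pBAD plasmid library in pooled LB shake-flask culture, induced with 0.3% L-arabinose, DNA abundance read by NGS, three biological replicates, DESeq2 with apeglm shrinkage.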

Sequence	shrunken log2 fold change
RRIRRRPPRLPRPRPRPLGFPRP	0.592
RRIRHRPPRLPRPRPRPGNWPRP	-0.0354
RRIRERPPRLPRPRPRPMVFPRP	0.0276
RRIRYRPPRLPRPRPRPGNTPRP	-1.18
RRIRPRPPRLPRPRPRPFKAPRP	-0.0573
RRIRLRPPRLPRPRPRPFIEPRP	-0.372
RRIRCRPPRLPRPRPRPEMEPRP	0.00408
RRIRRRPPRLPRPRPRPAKDPRP	0.185
RRIRRRPPRLPRPRPRPGMCPRP	0.269
RRIRVRPPRLPRPRPRPHQVPRP	-0.111
RRIRPRPPRLPRPRPRPICPPRP	-0.17
RRIRIRPPRLPRPRPRPGCSPRP	-0.391
RRIRMRPPRLPRPRPRPNAIPRP	0.0397
RRIRDRPPRLPRPRPRPFFIPRP	-0.191
RRIRWRPPRLPRPRPRPWDTPRP	0.0106
RRIRHRPPRLPRPRPRPQNDPRP	0.0173
RRIRRRPPRLPRPRPRPKYWPRP	0.00676
RRIRARPPRLPRPRPRPDFDPRP	1.07
RRIRLRPPRLPRPRPRPGVAPRP	0.529
RRIRVRPPRLPRPRPRPLPPPRP	0.418
RRIRVRPPRLPRPRPRPNAQPRP	0.24
RRIRPRPPRLPRPRPRPHVCPRP	0.171
RRIRYRPPRLPRPRPRPQRLPRP	-0.131
RRIRDRPPRLPRPRPRPPQEPRP	0.559
RRIRHRPPRLPRPRPRPCLEPRP	-0.0502

Sequence	shrunken log2 fold change
RRIRCRPPRLPRPRPRPPSRPRP	0.558
RRIRIRPPRLPRPRPRPEQLPRP	-0.148
RRIRQRPPRLPRPRPRPDHMPRP	0.0119
RRIRDRPPRLPRPRPRPMNLPRP	-0.1
RRIRYRPPRLPRPRPRPRYEPRP	-0.415
RRIRERPPRLPRPRPRPELPPRP	-0.0646
RRIRLRPPRLPRPRPRPEFRPRP	0.126
RRIRHRPPRLPRPRPRPAMWPRP	0.00652
RRIRERPPRLPRPRPRPEYNPRP	-0.274
RRIRYRPPRLPRPRPRPIVEPRP	0.00721
RRIRYRPPRLPRPRPRPDWRPRP	0.22
RRIRNRPPRLPRPRPRPAEKPRP	0.0519
RRIRKRPPRLPRPRPRPREHPRP	0.0968
RRIRFRPPRLPRPRPRPSEPPRP	-0.0424
RRIRQRPPRLPRPRPRPNWIPRP	-0.0614
RRIRYRPPRLPRPRPRPTDPPRP	-0.107
RRIRKRPPRLPRPRPRPFCGPRP	0.345
RRIRRRPPRLPRPRPRPISSPRP	0.0497
RRIRTRPPRLPRPRPRPIKSPRP	-0.61
RRIRARPPRLPRPRPRPYNFPRP	-0.192
RRIRLRPPRLPRPRPRPRQEPRP	0.0259
RRIRPRPPRLPRPRPRPVMFPRP	0.885
RRIRGRPPRLPRPRPRPQTTPRP	0.889
RRIRERPPRLPRPRPRPAQYPRP	0.0972
RRIRKRPPRLPRPRPRPMIIPRP	-0.0318

Sequence	shrunken log2 fold change
RRIRMRPPRLPRPRPRPVSQPRP	0.712
RRIRSRPPRLPRPRPRPLQIPRP	0.0322
RRIRDRPPRLPRPRPRPLEWPRP	0.421
RRIRWRPPRLPRPRPRPCYKPRP	-0.00556
RRIRNRPPRLPRPRPRPGWGPRP	0.492
RRIRFRPPRLPRPRPRPHVNPRP	-0.297
RRIRPRPPRLPRPRPRPNTMPRP	-0.492
RRIRDRPPRLPRPRPRPPNHPRP	-0.205
RRIRTRPPRLPRPRPRPEPCPRP	0.0427
RRIRDRPPRLPRPRPRPWWSPRP	-0.0691
RRIRIRPPRLPRPRPRPDWEPRP	-0.0114
RRIRSRPPRLPRPRPRPEVRPRP	-0.109
RRIRGRPPRLPRPRPRPTVGPRP	0.832
RRIRHRPPRLPRPRPRPYEYPRP	-0.4
RRIRKRPPRLPRPRPRPAMVPRP	0.87
RRIRIRPPRLPRPRPRPKNLPRP	-0.0922
RRIRYRPPRLPRPRPRPCFMPRP	-0.675
RRIRARPPRLPRPRPRPQHDPRP	-0.117
RRIRPRPPRLPRPRPRPDEHPRP	-0.205
RRIRIRPPRLPRPRPRPCFYPRP	-0.694
RRIRKRPPRLPRPRPRPLNRPRP	-0.0492
RRIRSRPPRLPRPRPRPWVQPRP	0.127
RRIRTRPPRLPRPRPRPDQFPRP	-0.00188
RRIRLRPPRLPRPRPRPKCPPRP	-0.193
RRIRARPPRLPRPRPRPHWQPRP	0.124

Sequence	shrunken log2 fold change
RRIRMRPPRLPRPRPRPANWPRP	2.4
RRIRQRPPRLPRPRPRPEQHPRP	-0.0137
RRIRQRPPRLPRPRPRPFMEPRP	0.212
RRIRKRPPRLPRPRPRPALWPRP	0.27
RRIRKRPPRLPRPRPRPTRYPRP	0.438
RRIRERPPRLPRPRPRPSPGPRP	-0.00119
RRIRRRPPRLPRPRPRPNNDPRP	-0.358
RRIRDRPPRLPRPRPRPSDKPRP	0.0657
RRIRVRPPRLPRPRPRPWIGPRP	-0.166
RRIRWRPPRLPRPRPRPRGVPRP	0.756
RRIRQRPPRLPRPRPRPHCPPRP	-0.0268
RRIRNRPPRLPRPRPRPMSWPRP	-0.549
RRIRARPPRLPRPRPRPFFWPRP	0.321
RRIRMRPPRLPRPRPRPTPSPRP	1.18
RRIRTRPPRLPRPRPRPGRYPRP	0.123
RRIRLRPPRLPRPRPRPPYLPRP	-0.0206
RRIRTRPPRLPRPRPRPMCNPRP	-0.249
RRIRYRPPRLPRPRPRPFARPRP	-0.084
RRIRLRPPRLPRPRPRPTCLPRP	-0.255
RRIRFRPPRLPRPRPRPPHRPRP	0.324
RRIRHRPPRLPRPRPRPWYFPRP	-0.813
RRIRSRPPRLPRPRPRPPIMPRP	-0.0485
RRIRNRPPRLPRPRPRPNDIPRP	-0.418
RRIRARPPRLPRPRPRPLKAPRP	0.16
RRIRGRPPRLPRPRPRPTDCPRP	0.275

Sequence	shrunken log2 fold change
RRIRNRPPRLPRPRPRPRCNPRP	-0.0207
RRIRIRPPRLPRPRPRPGLNPRP	1
RRIRGRPPRLPRPRPRPMEDPRP	-0.0262
RRIRYRPPRLPRPRPRPQCCPRP	-0.18
RRIRCRPPRLPRPRPRPCMVPRP	-0.587
RRIRERPPRLPRPRPRPTRNPRP	0.22
RRIRLRPPRLPRPRPRPQHEPRP	-0.0398
RRIRVRPPRLPRPRPRPAKNPRP	0.153
RRIRIRPPRLPRPRPRPGTAPRP	-0.0164
RRIRQRPPRLPRPRPRPIHIPRP	-0.187
RRIRIRPPRLPRPRPRPYNHPRP	-0.138
RRIRNRPPRLPRPRPRPTWSPRP	-0.352
RRIRLRPPRLPRPRPRPLMDPRP	-0.0257
RRIRCRPPRLPRPRPRPDERPRP	-0.149
RRIRMRPPRLPRPRPRPKATPRP	0.0633
RRIRSRPPRLPRPRPRPLVWPRP	0.272
RRIRGRPPRLPRPRPRPWHIPRP	-0.111
RRIRSRPPRLPRPRPRPTPNPRP	0.306
RRIRKRPPRLPRPRPRPELVPRP	0.133
RRIRTRPPRLPRPRPRPCCLPRP	0.096
RRIRNRPPRLPRPRPRPHCKPRP	-0.249
RRIRIRPPRLPRPRPRPCYEPRP	-0.303
RRIRGRPPRLPRPRPRPPGGPRP	1.18
RRIRNRPPRLPRPRPRPYMIPRP	0.0323
RRIRRRPPRLPRPRPRPELDPRP	0.122

Reference: the supplement of paper PMC9112550, “Optimization of the antimicrobial peptide Bac7 by deep mutational scanning” (BMC Biology, 2022)
